Results on 167 variants are retold here after the RNAGym collection of RNA variant scans (doi:10.7554/elife.80360).

First the molecules themselves.
B1: Hammerhead Ribozyme (parent)
chain: ACCGGAUGUGCUUUCCGGUCUGAUGAGUCCGUGAGGACGAAACAG

The variants in the data set derive from B1. As to the kind of experiment: self-cleavage, relative activity (ratio to wild type); higher = more cleavage; co-transcriptional.
With C11U A42C, the self-cleavage amounted to 0.388. For the variant C11U A42U, the self-cleavage is 0.377. As to C11A G18U, the self-cleavage is 1.04. Consider C11A G18A, for which the self-cleavage was determined as 0.839. To C11A G18C belongs 0.586.

For G10U G45U, the self-cleavage stood at 0.926. The same measure for G10U G45C: 0.828. As to G10U G45A, the self-cleavage was found to be 0.694. Take C11G C15U: the self-cleavage is 0.986.

In the case of C11G C15A, the self-cleavage stood at 0.824. Take C11G C15G: the self-cleavage is 0.88. Take C11G A37G: the self-cleavage came out at 1.02. The same measure for C11G A37C: 1.11; for C11G A37U: 0.897. In the case of C11G U28G, the self-cleavage is 0.849. For C11G U28A, the self-cleavage stood at 0.809. Consider C11G U28C, for which the self-cleavage was 1.13. With C11G G36A, the self-cleavage stood at 0.763. As for C11G G36C, the self-cleavage came out at 0.998. In the case of C11G G36U, the self-cleavage turned out to be 0.69. The same measure for C11G G39A: 0.253; for C11G G39C: 0.541. For C11G G39U, the self-cleavage was 0.301.

Take G10U U21A: the self-cleavage came to 0.605. On to G10U U21C, for which the self-cleavage was 0.896. Take G10U U21G: the self-cleavage was 0.578. To C11G G31C belongs 0.83; to C11G G31A, 1.03.

Consider C11G G31U, for which the self-cleavage was found to be 1.34. For the variant C11A U24G, the self-cleavage came to 1.34. In the case of C11A U24C, the self-cleavage was 1.13. For the variant C11A U24A, the self-cleavage was 1.14.

As for C11G A34C, the self-cleavage is 0.893.

For the variant C11G A34U, the self-cleavage was found to be 1.07.

On to C11G A34G, for which the self-cleavage is 1.06. For the variant C11A A34C, the self-cleavage worked out at 0.731. Take C11A A34U: the self-cleavage came to 0.771. The same measure for C11A A34G: 0.996. Turning to G10U A26U, the self-cleavage stood at 0.873. As to G10U A26C, the self-cleavage was found to be 0.439. For G10U A26G, the self-cleavage was found to be 0.317.

Consider C11U A23G, for which the self-cleavage worked out at 0.39. With C11U A23C, the self-cleavage is 0.277. Take C11U A23U: the self-cleavage was found to be 0.338. The same measure for C11A U12C: 1.08; for C11A U12A: 0.977; for C11A U12G: 1.61. As to C11A A40U, the self-cleavage worked out at 0.29. On to C11A A40G, for which the self-cleavage came to 0.346. Turning to C11A A40C, the self-cleavage is 0.587. As to C11A A41C, the self-cleavage came out at 0.371. The same measure for C11A A41G: 0.364. To C11A A41U belongs 0.273; to C11G G25C, 0.326; to C11G G25U, 0.282. C11G G25A: the self-cleavage was found to be 0.288.

In the case of C11G G33U, the self-cleavage came to 1.53. The same measure for C11G G33C: 1; for C11G G33A: 1.11; for C11G C43G: 0.29. Regarding C11G C43A, the self-cleavage was 0.311. For the variant C11G C43U, the self-cleavage was 0.483. As for G10U A23C, the self-cleavage stood at 0.47. The same measure for G10U A23U: 0.421.

Regarding G10U A23G, the self-cleavage was found to be 0.388. With C11G C29U, the self-cleavage came to 1.28. With C11G C29A, the self-cleavage stood at 0.786. To C11G C29G belongs 0.82; to G10U U32C, 0.694; to G10U U32A, 0.896. In the case of G10U U32G, the self-cleavage stood at 0.758. Take G10U C30A: the self-cleavage came out at 0.844. The same measure for G10U C30G: 1. Consider G10U C30U, for which the self-cleavage came out at 1.07. On to C11A U32A, for which the self-cleavage is 1.4. The same measure for C11A U32C: 1.06; for C11A U32G: 1.01. On to C11A G25U, for which the self-cleavage stood at 0.329.

In the case of C11A G25A, the self-cleavage turned out to be 0.342. For the variant C11A G25C, the self-cleavage was 0.284. Regarding G10U G17U, the self-cleavage is 0.848. Consider G10U G17C, for which the self-cleavage is 0.649. Regarding G10U G17A, the self-cleavage stood at 0.957. To C11G A41G belongs 0.413. Take C11G A41C: the self-cleavage was 0.366. The same measure for C11G A41U: 0.382. With C11G A44G, the self-cleavage turned out to be 1.8. To C11G A44C belongs 0.769; to C11G A44U, 0.648. The same measure for C11A U19A: 0.358; for C11A U19C: 0.603. The same measure for C11A U19G: 0.392; for C11G A40G: 0.413. Take C11G A40U: the self-cleavage came out at 0.273. The same measure for C11G A40C: 0.838; for C11G U32G: 1.19; for C11G U32C: 1.12. As to C11G U32A, the self-cleavage came out at 1.1.

Turning to C11A A37U, the self-cleavage was 0.633. For C11A A37G, the self-cleavage was determined as 1.28. As to C11A A37C, the self-cleavage is 1.12. Take C11A G39A: the self-cleavage was 0.303. C11A G39U: the self-cleavage was determined as 0.29. The same measure for C11A G39C: 0.438; for C11G U21A: 0.735.

In the case of C11G U21G, the self-cleavage amounted to 0.847. With C11G U21C, the self-cleavage was determined as 0.987. Regarding C11G C38G, the self-cleavage came out at 0.692.

In the case of C11G C38U, the self-cleavage turned out to be 1.09. As to C11G C38A, the self-cleavage was determined as 0.718. The same measure for G10U G25A: 0.313; for G10U G25C: 0.375. As to G10U G25U, the self-cleavage was 0.314. Regarding G10U U12G, the self-cleavage was 0.773.

Consider G10U U12A, for which the self-cleavage worked out at 0.87. To G10U U12C belongs 0.689. With G10U G39C, the self-cleavage was determined as 0.379. Take G10U G39U: the self-cleavage stood at 0.313. Regarding G10U G39A, the self-cleavage was determined as 0.405.

As to G10U U14A, the self-cleavage was 0.822.

For the variant G10U U14G, the self-cleavage was 0.709. The same measure for G10U U14C: 0.952; for C11G U12C: 1.07; for C11G U12A: 1.1. Turning to C11G U12G, the self-cleavage came out at 1.17. Consider C11G C30A, for which the self-cleavage is 1.26. The same measure for C11G C30G: 1.22. For the variant C11G C30U, the self-cleavage amounted to 1.28. With C11U A34U, the self-cleavage was found to be 0.724.

In the case of C11U A34G, the self-cleavage came out at 0.83.

Turning to C11U A34C, the self-cleavage amounted to 0.584. G10U A44G: the self-cleavage amounted to 1.57. On to G10U A44C, for which the self-cleavage stood at 0.534. To G10U A44U belongs 0.686. Take C11G G17C: the self-cleavage stood at 0.273. Regarding C11G G17A, the self-cleavage is 0.511.

In the case of C11G G17U, the self-cleavage worked out at 0.589. Take C11G U24C: the self-cleavage stood at 1.07. Turning to C11G U24G, the self-cleavage turned out to be 1.3. As for C11G U24A, the self-cleavage is 0.829. On to G10U G31A, for which the self-cleavage was 0.989. For the variant G10U G31C, the self-cleavage was 0.998.

Consider G10U G31U, for which the self-cleavage amounted to 0.736. C11A C15A: the self-cleavage turned out to be 0.851. Turning to C11A C15G, the self-cleavage is 1.15. With C11A C15U, the self-cleavage is 1.01. To C11A C29G belongs 0.809. As for C11A C29U, the self-cleavage was 1.08.

Consider C11A C29A, for which the self-cleavage was 0.783. Turning to G10U A40G, the self-cleavage came to 0.36. To G10U A40U belongs 0.338. Take G10U A40C: the self-cleavage was found to be 0.548. Take C11G U13A: the self-cleavage was found to be 1.21. For the variant C11G U13G, the self-cleavage came out at 1.11.

For C11G U13C, the self-cleavage was determined as 1.32. Turning to G10U G33A, the self-cleavage was determined as 1.13. G10U G33U: the self-cleavage is 1.05.

As to G10U G33C, the self-cleavage was determined as 1.1. As to G10U U24G, the self-cleavage worked out at 1.16. For the variant G10U U24C, the self-cleavage stood at 1.13.

Regarding G10U U24A, the self-cleavage came to 1.01. Turning to C11A G45A, the self-cleavage was 0.778. On to C11A G45C, for which the self-cleavage came to 0.97.

In the case of C11A G45U, the self-cleavage is 1.05. Regarding G10U G35A, the self-cleavage worked out at 0.838.

G10U G35U: the self-cleavage came to 0.844. Turning to G10U G35C, the self-cleavage came to 0.685.
